{"source": "patent US6319893A", "about": "“Raising blood sugar level in hypoglycemic mammals by administering inhibitors of dipeptidyl peptidase IV” (Probiodrug, priority 1998, dated 2001)", "key": {"DP IV": {"target": "DP IV (Homo sapiens, UniProt P27487)", "sequence (P27487 whole entry)": "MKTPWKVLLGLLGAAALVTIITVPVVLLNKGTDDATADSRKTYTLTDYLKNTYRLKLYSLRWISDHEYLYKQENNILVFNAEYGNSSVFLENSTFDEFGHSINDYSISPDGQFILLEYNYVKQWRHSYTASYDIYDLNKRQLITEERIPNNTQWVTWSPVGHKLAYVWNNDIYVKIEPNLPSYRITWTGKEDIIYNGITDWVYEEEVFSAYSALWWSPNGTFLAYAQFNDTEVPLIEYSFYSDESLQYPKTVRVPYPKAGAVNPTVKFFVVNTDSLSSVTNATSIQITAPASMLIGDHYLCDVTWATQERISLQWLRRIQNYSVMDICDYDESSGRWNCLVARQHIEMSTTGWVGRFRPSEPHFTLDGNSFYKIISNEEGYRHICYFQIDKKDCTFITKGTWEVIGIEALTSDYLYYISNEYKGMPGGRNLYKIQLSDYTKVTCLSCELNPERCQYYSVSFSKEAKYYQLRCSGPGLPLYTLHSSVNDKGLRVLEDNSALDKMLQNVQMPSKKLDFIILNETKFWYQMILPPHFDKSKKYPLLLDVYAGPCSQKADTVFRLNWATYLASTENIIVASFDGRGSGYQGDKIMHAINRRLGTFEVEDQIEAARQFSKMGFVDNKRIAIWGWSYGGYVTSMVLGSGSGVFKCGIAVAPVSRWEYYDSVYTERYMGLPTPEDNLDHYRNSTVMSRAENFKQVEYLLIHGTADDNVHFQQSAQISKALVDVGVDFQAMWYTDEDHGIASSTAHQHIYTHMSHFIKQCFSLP", "assay": "MALDI-TOF mass spectra of glucagon solution incubated with DP IV", "format": "biochemical", "details": "0.14 mmol glucagon solution, 40 mmol TRIS/HCL pH=7.6, 40 nmol DP IV; FIG. 1"}, "serum DP IV": {"target": "T1, serum DP IV (Homo sapiens, UniProt P27487)", "T1 construct": "from tissue; host or cells: serum", "T1 sequence (P27487 39-766 limits assumed)": "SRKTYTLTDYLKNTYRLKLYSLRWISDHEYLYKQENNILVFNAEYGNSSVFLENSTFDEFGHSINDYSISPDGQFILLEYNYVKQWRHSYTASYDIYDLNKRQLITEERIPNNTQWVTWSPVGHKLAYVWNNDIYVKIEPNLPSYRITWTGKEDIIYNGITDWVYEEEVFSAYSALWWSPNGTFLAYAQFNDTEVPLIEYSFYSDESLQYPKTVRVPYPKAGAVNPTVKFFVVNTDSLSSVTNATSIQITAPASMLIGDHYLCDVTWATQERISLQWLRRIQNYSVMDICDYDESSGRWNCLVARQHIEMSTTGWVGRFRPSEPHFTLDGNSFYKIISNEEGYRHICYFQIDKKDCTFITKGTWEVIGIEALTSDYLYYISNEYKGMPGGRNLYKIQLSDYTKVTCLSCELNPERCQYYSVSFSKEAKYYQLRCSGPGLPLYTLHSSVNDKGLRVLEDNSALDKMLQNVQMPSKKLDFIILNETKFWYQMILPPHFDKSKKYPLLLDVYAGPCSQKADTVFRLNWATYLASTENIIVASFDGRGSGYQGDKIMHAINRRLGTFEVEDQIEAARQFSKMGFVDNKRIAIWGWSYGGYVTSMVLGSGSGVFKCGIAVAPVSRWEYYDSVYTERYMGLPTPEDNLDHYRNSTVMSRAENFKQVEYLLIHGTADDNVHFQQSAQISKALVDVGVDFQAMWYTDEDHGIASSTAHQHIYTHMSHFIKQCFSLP", "assay": "MALDI-TOF mass spectra of a glucagon-serum mixture, serum DP IV-catalysed glucagon cleavage", "format": "biochemical", "details": "no inhibitor, FIG. 2 A", "text": "Inhibition of Serum DP IV-catalysed Glucagon Cleavage by the DP IV Inhibitor Isoleticyl-thiazolidine"}}}
{"substance": "glucagon", "values": [{"measurement": "cleavage of glucagon by DP IV (MALDI-TOF)", "setting": "DP IV", "value": "removal of the dipeptides His-Ser and Gln-Gly occurs sequentially depending upon the incubation time"}, {"measurement": "hydrolysis of glucagon by serum DP IV (MALDI-TOF)", "setting": "serum DP IV", "value": "serum-DP IV hydrolyses glucagoni"}]}
